Data from the supplement of paper PMC9170038.

tested on: MS2 coat protein; experiment: apparent KD of MS2 coat protein; higher = weaker reporter binding; details: Eterna round: R107; input ligand: arginine 13.2 mM
Protocol: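 RNA-MaP round R107: designed RNA switches with theophylline, tryptophan, arginine or FMN aptamers are transcribed on-chip within common flanks. They are titrated with SNAP-549-labelled MS2 coat protein in RNA-MaP buffer (100 mM Tris pH 7.5, 80 mM KCl, 4 mM MgCl2), without ligand or with the indicated ligand. Median apparent KD per design.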

Sequence	apparent KD of MS2 coat protein
ACAUGAGGAUCACCCAUGUAACGGCAUAAUCGAGGACCGGUACGGCCGCCACUCGGAAUCAGUGACAGGCAUAUUUAUUAUAAGA [Eclusion - Tryptophan A / A]	12 nM
CUACAUUUGUAGAAACCGGUCAACAAUAAUCGAGGACCGGUACGGCCGCCACUCGUAUAAUUUAAUACAUGAGGAUCACCCAUGU [Tryptophan A 1]	13.7 nM
UCUACAUGAGGAUCACCCAUGUGCCAUGAUACCAGACAUGAAAAUGUCCCUUGGCAGCGUGGGUAGCGCAUCCGAAAGGAUGCGC [#08 SameState-TheophyllineA]	1370 nM
GCAUCCUAGUCGGCCGCCACUGCAUGUAGGCAGUGCUGCUACAAACAUGAGGAUCACCCAUGUAGCAGGACCGGGACUAGGAUGC [(Trp1)-(MT2)''-(T1)'-(MT2)'-(Ms2)-(Trp2)_Design2]	13 nM
CCUCGACAUGAGGAUCACCCAUGUAGAGAUACCAGCCUGUGAGAUGGCCCUUGGCAGCUCAUAUAGGGUACGGGAGUCGUUUCGA [Eslaqu]	19.4 nM
UUCUACAUGAGGAUCACCCAUGUAAACGAUACCAGACGAGUAUUAGUCCCUUGGCAGCGUAGAGUGUCGUUUAUAGUAGGAUACC [TheoA-ms2@5]	23.4 nM
CCUAUGCAGUCGGCCGCCACUGAACAUGAGGAUCACCCAUGUAACGGAAACGAAGAUCCUGAAAUCAGGACCGGGACUGUAUAGG [Ex Tryptophan B 3]	92.6 nM
AUAAGUAAUGUUACGUGUUUUAUUACAGAUACCAGACUAUACGUUGUCCCUUGGCAGCUGAAUUACAUGAGGAUCACCCAUGUUG [JR_ExcTheophyA_Sub004]	15.9 nM
CCAUGCAGGUCGGCCGCCACUACACACAUGAGGAUCACCCAUGUAGUUACUGGGUGAAGUGGCAGUAGGACCGGGACCUGCAUAC [Brourdmod12]	78.2 nM
GGUUACUCUACGGCCGCCACUGUUAAAUAAUAAACCUGUACAUAAACAUGAGGAUCACCCAUGUACAGGACCGGGUAGUGUAACC [Tryptophan B 8]	27.6 nM
ACAUGAGGAUCACCCAUGUCUGCCACUGAUACCAGCGGAAGCCCACGCCCUUGGCAGCAGAACAUGAGGAUCACCCAUGUAGGCU [Same State Theophylline A GF28]	55.8 nM
AGUCUUGUGGGAAGGAGCGCAUACUUCACAUGAGGAUCACCCAUGUCAAGACGUGAGUCAGUGCAGGUAGGUCGCCUAACUAAGA [Same State - Arginine B (Freestyle 15)]	53.1 nM
CUAUUCUGUACGGCCGCCACUUCAACGUGUAAGCUGGUGGUCCACUACAUGAGGAUCACCCAUGUAAGGACCGGGUACGGCGCGG [theeternabot_exclusion_MS2_Trp_B_29]	12 nM
UCAUUUGAGUGAGAUGUAAGGUAUCAUGAUACCAGUAGAUAAUUAUACCCUUGGCAGCAUGACAUGAGGAUCACCCAUGUACAUG [Ad]	9.28 nM
AAUAAUCUAGGUGAUACCAGCUCAACAUGAGGAUCACCCAUGUACUCAUGUAGAGUUGAGAGCCCUUGGCAGCACCUAGAUAAUA [(Theo1)-(Ms2)-(M)'-(T)'-(Theo2)]	198 nM
ACACACAUGAGGAUCACCCAUGUAAUAGAUACCAGUGACGCGGUGCACCCUUGGCAGCUGCUGCUGAGUGAUGGUUCCCUCGGAA [Exclusion Theophylline A GF7]	16.8 nM
GCCUAGCAGCGAAGGAGCGACAUCGGCGCAUGCGAGGACAUGAGGAUCACCCAUGUACCAUGUCAGGUAGGUCGCGCUGCUAGGC [EAB NP+V+V2 #6]	17.9 nM
UGAGUUAGACAAAAGUCUAGCUCUGGUGAAGGAGCGUCCGAAAGGACAGGUAGGUCGCACCACAUGAGCAUCAGCCAUGUUCCUU [ArgAS 23 #OpenEnded #AlternativeMS2]	17.9 nM
UUCUGGUCCCGUGAUACCAGAGACAUGAGGAUCACCCAUGUACAUGAGGAUCACCCAUGUUUCCCUUGGCAGCACUGUAGGGAGC [Exclusion Theophylline B GF 16]	79.9 nM
ACGUCACGUUUACUCGUGGUUUCGAUCGAUACCAGUAGCGAGAGUUACCCUUGGCAGCGACAUGAGGAUCACCCAUGUACGAAGA [XTheo A #25]	10.8 nM
GCUGCCGUCGGUGAAAACUCCCAUGCAGAUACCAGCGCAUUCCGCCGCCCUUGGCAGCUGCAUACAUGAGGAUCACCCAUGUGUU [theeternabot_exclusion_MS2_Theo_A_48]	41.4 nM
UAUCCACAUGAGGAUCACCCAUGUGAGGAAGGAGCGGUGAAUGCACCAGGUAGGUCGCCUUGCUGAGGACAGCCGGUGGAUUCGU [Exclusion - Arginine A (Freestyle 25)]	13.5 nM
AUAUAUGACAGAAGGAGCGCCAUGAACACACAUGAGGAUCACCCAUGUUUUUUUUGUGUUUGGCAGGUAGGUCGCUGACAUGAAA [Same State Arginine B 3]	9.45 nM
ACAUGAGGAUCACCCAUGUGAAGCAGGGUACGAGGACCGGUACGGCCGCCACUCGAACAUUAUAACGAGUGAAUGGCAACGAUGU [B15Jan]	15.7 nM
AUAUGAUCAUAGGAUACCAGAAAUGGUAUUCCUUUAUUUCUUACAUGAGGAUCACCCAUGUUCCCUUGGCAGCUUAUGAUCAUAU [ETHB #4]	79.3 nM
GGUGGGACUUGUGAUACCAGCCCAAUUCGAAUCGAAUUGCACAUGAGGAUCACCCAUGUCGGCCCUUGGCAGCAUGAGUAUUUAU [Ricerixe]	152 nM
CCUAUGCAGUCGGCCGCCACUGAGUCCUCAAUAAUAAAUUAAUAAACAUGAGGAUCACCCAUGUACAGGACCGGGACUGUAUAGG [Ex Tryptophan B 12]	165 nM
ACAUGAGGAUCACCCAUGUAAGAUUCAGAAGGAGCGGGAAAUAACCCAGGUAGGUCGCUGAAGUUUGGUUUAUUGUGUUCGUGAA [#07 Exclusion - Arginine A]	10.2 nM

same assay, conditions: Eterna round: R107; input ligand: none

Sequence	apparent KD of MS2 coat protein
UCUACAUGAGGAUCACCCAUGUGCCAUGAUACCAGACAUGAAAAUGUCCCUUGGCAGCGUGGGUAGCGCAUCCGAAAGGAUGCGC [#08 SameState-TheophyllineA]	702 nM
CCUCGACAUGAGGAUCACCCAUGUAGAGAUACCAGCCUGUGAGAUGGCCCUUGGCAGCUCAUAUAGGGUACGGGAGUCGUUUCGA [Eslaqu]	22.2 nM
CCUAUGCAGUCGGCCGCCACUGAACAUGAGGAUCACCCAUGUAACGGAAACGAAGAUCCUGAAAUCAGGACCGGGACUGUAUAGG [Ex Tryptophan B 3]	154 nM
CCAUGCAGGUCGGCCGCCACUACACACAUGAGGAUCACCCAUGUAGUUACUGGGUGAAGUGGCAGUAGGACCGGGACCUGCAUAC [Brourdmod12]	341 nM
AGUCUUGUGGGAAGGAGCGCAUACUUCACAUGAGGAUCACCCAUGUCAAGACGUGAGUCAGUGCAGGUAGGUCGCCUAACUAAGA [Same State - Arginine B (Freestyle 15)]	30.3 nM
CUAUUCUGUACGGCCGCCACUUCAACGUGUAAGCUGGUGGUCCACUACAUGAGGAUCACCCAUGUAAGGACCGGGUACGGCGCGG [theeternabot_exclusion_MS2_Trp_B_29]	12.5 nM
GCCUAGCAGCGAAGGAGCGACAUCGGCGCAUGCGAGGACAUGAGGAUCACCCAUGUACCAUGUCAGGUAGGUCGCGCUGCUAGGC [EAB NP+V+V2 #6]	23.4 nM
UGAGUUAGACAAAAGUCUAGCUCUGGUGAAGGAGCGUCCGAAAGGACAGGUAGGUCGCACCACAUGAGCAUCAGCCAUGUUCCUU [ArgAS 23 #OpenEnded #AlternativeMS2]	17.3 nM
UAUCCACAUGAGGAUCACCCAUGUGAGGAAGGAGCGGUGAAUGCACCAGGUAGGUCGCCUUGCUGAGGACAGCCGGUGGAUUCGU [Exclusion - Arginine A (Freestyle 25)]	12.4 nM
